Measurements published in paper PMC6018924, “Brassinosteroids regulate pavement cell growth by mediating BIN2-induced microtubule stabilization” (Journal of Experimental Botany, 2018).

Columns and labels:
Assay in all cases: pull-down; GST fusion bound to GST resin in 1× PBS pH 7.4, 0.1% Triton X-100, 2 h at 4 °C; incubated with purified tubulin-His 2 h at 4 °C; western blot with anti-His antibody
Settings in all cases: both partners purified
TUB8–His = target: T1, TUB8–His (Arabidopsis, UniProt P29516 1-449)
T1 construct: β-tubulin TUB8 of Arabidopsis, gene cloned into pET28a; also called tubulin–His; source: E. coli (Rosetta strain), purified using Ni-NTA agarose
T1 sequence (P29516 whole entry): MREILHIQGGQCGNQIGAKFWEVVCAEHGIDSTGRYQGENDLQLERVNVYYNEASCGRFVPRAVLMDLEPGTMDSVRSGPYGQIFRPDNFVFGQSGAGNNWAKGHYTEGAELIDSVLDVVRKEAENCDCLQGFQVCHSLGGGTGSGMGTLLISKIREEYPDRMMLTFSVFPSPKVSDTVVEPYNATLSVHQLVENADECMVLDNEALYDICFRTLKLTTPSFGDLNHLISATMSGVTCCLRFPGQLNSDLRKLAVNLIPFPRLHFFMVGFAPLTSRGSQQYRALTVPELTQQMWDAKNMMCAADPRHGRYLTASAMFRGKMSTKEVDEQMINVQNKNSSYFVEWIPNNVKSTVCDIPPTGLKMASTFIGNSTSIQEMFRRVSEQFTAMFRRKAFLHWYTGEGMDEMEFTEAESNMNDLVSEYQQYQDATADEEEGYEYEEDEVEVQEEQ

TUB7–His = target: T2, TUB7–His (Arabidopsis, UniProt P29515 1-449)
T2 construct: β-tubulin TUB7 of Arabidopsis, gene cloned into pET28a; also called tubulin–His; source: E. coli (Rosetta strain), purified using Ni-NTA agarose
T2 sequence (P29515 whole entry): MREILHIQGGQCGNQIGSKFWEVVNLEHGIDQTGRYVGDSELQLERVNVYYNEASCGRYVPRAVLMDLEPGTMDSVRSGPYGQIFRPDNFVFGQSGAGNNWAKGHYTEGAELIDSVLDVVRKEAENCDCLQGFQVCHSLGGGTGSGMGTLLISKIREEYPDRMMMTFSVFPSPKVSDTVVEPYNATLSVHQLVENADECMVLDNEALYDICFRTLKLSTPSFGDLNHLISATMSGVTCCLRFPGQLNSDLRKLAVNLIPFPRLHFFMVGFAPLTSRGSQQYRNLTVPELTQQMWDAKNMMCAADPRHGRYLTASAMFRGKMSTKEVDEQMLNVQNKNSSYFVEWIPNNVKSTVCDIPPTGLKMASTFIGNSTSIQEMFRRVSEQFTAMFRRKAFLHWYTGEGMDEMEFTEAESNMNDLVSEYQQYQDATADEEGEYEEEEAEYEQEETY

TUA5–His = target: T3, TUA5–His (Arabidopsis, UniProt B9DHQ0 1-450)
T3 construct: α-tubulin TUA5 of Arabidopsis, gene cloned into pET28a; also called tubulin–His; source: E. coli (Rosetta strain), purified using Ni-NTA agarose
T3 sequence (B9DHQ0 whole entry): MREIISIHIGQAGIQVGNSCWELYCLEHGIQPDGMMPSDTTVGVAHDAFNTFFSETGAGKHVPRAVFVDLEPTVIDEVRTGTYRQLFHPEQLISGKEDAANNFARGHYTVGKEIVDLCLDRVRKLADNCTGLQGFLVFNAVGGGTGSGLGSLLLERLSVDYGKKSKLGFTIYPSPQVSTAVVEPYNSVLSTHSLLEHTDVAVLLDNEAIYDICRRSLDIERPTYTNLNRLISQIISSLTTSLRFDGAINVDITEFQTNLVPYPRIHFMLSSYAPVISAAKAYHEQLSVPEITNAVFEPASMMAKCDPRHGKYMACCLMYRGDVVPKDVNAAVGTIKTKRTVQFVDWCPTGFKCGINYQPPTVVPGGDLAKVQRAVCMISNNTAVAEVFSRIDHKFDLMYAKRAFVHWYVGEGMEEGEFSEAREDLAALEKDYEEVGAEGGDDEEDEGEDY

TUB3–His = target: T4, TUB3–His (Arabidopsis, UniProt Q9ASR0 1-450)
T4 construct: β-tubulin TUB3 of Arabidopsis, gene cloned into pET28a; also called tubulin–His; source: E. coli (Rosetta strain), purified using Ni-NTA agarose
T4 sequence (Q9ASR0 whole entry): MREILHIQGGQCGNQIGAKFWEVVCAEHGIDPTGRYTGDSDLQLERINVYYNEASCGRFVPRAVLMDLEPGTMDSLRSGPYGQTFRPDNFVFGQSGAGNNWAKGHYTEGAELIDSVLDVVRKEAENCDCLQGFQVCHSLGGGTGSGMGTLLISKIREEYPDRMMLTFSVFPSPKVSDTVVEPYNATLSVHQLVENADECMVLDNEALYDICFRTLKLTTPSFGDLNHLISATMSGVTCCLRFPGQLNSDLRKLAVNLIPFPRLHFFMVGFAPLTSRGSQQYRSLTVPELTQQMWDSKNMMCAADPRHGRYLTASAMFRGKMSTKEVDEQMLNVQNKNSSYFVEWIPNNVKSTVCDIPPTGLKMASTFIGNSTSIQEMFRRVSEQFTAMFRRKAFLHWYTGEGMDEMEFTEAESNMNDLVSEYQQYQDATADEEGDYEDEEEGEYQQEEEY

TUA1–His = target: T5, TUA1–His (Arabidopsis, UniProt P11139 1-450)
T5 construct: α-tubulin TUA1 of Arabidopsis, gene cloned into pET28a; also called tubulin–His; source: E. coli (Rosetta strain), purified using Ni-NTA agarose
T5 sequence (P11139 whole entry): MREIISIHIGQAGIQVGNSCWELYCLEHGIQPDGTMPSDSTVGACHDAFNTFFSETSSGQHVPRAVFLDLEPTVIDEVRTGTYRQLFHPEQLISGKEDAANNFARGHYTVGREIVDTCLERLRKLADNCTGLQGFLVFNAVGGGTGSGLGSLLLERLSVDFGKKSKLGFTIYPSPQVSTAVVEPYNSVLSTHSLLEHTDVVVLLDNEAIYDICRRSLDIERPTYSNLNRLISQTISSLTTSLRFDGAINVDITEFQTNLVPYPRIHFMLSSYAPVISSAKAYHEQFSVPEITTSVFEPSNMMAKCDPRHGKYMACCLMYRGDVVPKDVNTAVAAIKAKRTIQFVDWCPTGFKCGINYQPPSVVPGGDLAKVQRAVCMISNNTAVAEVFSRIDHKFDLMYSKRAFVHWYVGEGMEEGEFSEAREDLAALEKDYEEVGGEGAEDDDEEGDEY

TUB4–His = target: T6, TUB4–His (Arabidopsis, UniProt P24636 1-444)
T6 construct: β-tubulin TUB4 of Arabidopsis, gene cloned into pET28a; also called tubulin–His; source: E. coli (Rosetta strain), purified using Ni-NTA agarose
T6 sequence (P24636 whole entry): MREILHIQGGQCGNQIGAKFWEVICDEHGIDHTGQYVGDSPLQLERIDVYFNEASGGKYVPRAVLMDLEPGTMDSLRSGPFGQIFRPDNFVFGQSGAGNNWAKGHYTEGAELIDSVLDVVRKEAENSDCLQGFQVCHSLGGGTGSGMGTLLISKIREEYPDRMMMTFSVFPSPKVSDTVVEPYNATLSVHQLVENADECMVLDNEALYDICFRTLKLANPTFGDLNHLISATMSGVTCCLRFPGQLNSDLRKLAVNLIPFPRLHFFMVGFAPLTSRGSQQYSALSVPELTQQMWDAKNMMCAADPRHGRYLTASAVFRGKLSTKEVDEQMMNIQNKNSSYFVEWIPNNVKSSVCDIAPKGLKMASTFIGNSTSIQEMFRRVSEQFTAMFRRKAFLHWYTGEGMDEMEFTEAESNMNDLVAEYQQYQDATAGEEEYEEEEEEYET

TUA3–His = target: T7, TUA3–His (Arabidopsis, UniProt Q56WH1 1-450)
T7 construct: α-tubulin TUA3 of Arabidopsis, gene cloned into pET28a; also called tubulin–His; source: E. coli (Rosetta strain), purified using Ni-NTA agarose
T7 sequence (Q56WH1 whole entry): as the sequence (B9DHQ0 whole entry) above

TUB6–His = target: T8, TUB6–His (Arabidopsis, UniProt P29514 1-449)
T8 construct: β-tubulin TUB6 of Arabidopsis, gene cloned into pET28a; also called tubulin–His; source: E. coli (Rosetta strain), purified using Ni-NTA agarose
T8 sequence (P29514 whole entry): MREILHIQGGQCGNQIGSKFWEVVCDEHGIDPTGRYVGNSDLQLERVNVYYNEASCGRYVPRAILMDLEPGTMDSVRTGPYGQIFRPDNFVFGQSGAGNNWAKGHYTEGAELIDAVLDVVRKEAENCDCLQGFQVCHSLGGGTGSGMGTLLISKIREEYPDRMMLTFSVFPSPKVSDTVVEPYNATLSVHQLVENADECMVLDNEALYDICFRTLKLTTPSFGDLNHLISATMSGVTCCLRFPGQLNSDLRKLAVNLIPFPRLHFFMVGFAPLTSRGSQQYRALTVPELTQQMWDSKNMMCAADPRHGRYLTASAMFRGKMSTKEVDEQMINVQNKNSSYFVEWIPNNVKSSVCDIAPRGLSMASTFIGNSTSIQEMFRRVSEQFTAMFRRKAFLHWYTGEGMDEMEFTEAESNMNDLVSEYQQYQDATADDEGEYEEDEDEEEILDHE

Measured: binding result

B1: GST–BIN2 (BRASSINOSTEROID …2) (enzyme, Arabidopsis, UniProt Q39011 1-380, looked up)
chain: MADDKEMPAAVVDGHDQVTGHIISTTIGGKNGEPKQTISYMAERVVGTGSFGIVFQAKCLETGETVAIKKVLQDRRYKNRELQLMRVMDHPNVVCLKHCFFSTTSKDELFLNLVMEYVPESLYRVLKHYSSANQRMPLVYVKLYMYQIFRGLAYIHNVAGVCHRDLKPQNLLVDPLTHQVKICDFGSAKQLVKGEANISYICSRFYRAPELIFGATEYTTSIDIWSAGCVLAELLLGQPLFPGENAVDQLVEIIKVLGTPTREEIRCMNPHYTDFRFPQIKAHPWHKIFHKRMPPEAIDFASRLLQYSPSLRCTALEACAHPFFDELREPNARLPNGRPFPPLFNFKQEVAGSSPELVNKLIPDHIKRQLGLSFLNQSGT
notes: BRASSINOSTEROID …2 (BIN2), GSK3-like kinase of Arabidopsis, 380 aa; also called BIN2–GST; source: E. coli (Rosetta strain), purified using glutathione resin
binds: all assays above
